Source: US12065505B2, “Antibodies and antigen binding peptides for factor XIa inhibitors and uses thereof” (Bristol-Myers Squibb Company, priority 2021, dated 2024)
Where a chain is given by its changes, count along the chain named. Where two headings read alike, the source gives them in different places.

Columns and labels:
[1] = system: rabbit plasma clotting time (aPTT); test: In vivo reversal of Compound A anticoagulant effect by Fab, rabbit plasma aPTT; conditions: Compound A 1 mg/kg IV, mean of 3 animals
Method: In vivo experiments were conducted in accordance with the regulations of the Animal Care and Use Committee of the Bristol-Myers Squibb Company. Rabbits (male New Zealand White, 2 to 4 kg) were instrumented with indwelling catheters in the central ear artery for blood sampling and marginal ear vein for substance administration. Compound A was administered as a constant intravenous infusion at a dose of 1.0 mg/kg over 10 minutes. Beginning 20 minutes after the Compound A infusion was complete, the antibody Fab fragment 26D5-75616-348-F10-Fab-SHORT was administered as a constant intravenous infusion at a dose of 160 mg/kg over 10 minutes. […]
The anticoagulant effects of Compound A were measured in activated partial thromboplastin time (aPTT). The aPTT was determined using ACTIN® FS (Siemens/Dade-Behring) following the directions in the package insert. […] The clotting time was the time in seconds from the moment calcium chloride was added until a clot was detected. […]

[2] = Competitive TR-FRET assay, mAbs (T0 and T24); assay type: binding; conditions: 37° C.; difference between T0 and T24 IC50s; IgG1f mAb format
Method: A competitive TR-FRET (time-resolved fluorescence resonance energy transfer) assay was developed to rank-order the dissociation of α-Compound A mAbs from Compound A as equilibrium is reached at 37° C. The assay buffer was HBS-N (10 mM HEPES, 150 mM NaCl, pH 7.4; GE Healthcare), 0.1% (w/v) BSA (bovine serum albumin; Sigma), 2% DMSO (dimethyl sulfoxide; Sigma). All reagents were prepared in assay buffer and dispensed in equal volumes into white 384 microplates with final volume of 20 μl per well at the following final concentrations: 4 nM COMPOUND 5, the biotinylated analog of COMPOUND 2, a 100 0.1 nM 7-pt titration of human α-Compound A antibodies, 0.1 nM europium-labeled α-mouse IgG (LANCE Eu-W1024; PerkinElmer), 5 nM streptavidin-D2 (Cisbio), and 4 nM mAb 26D5 VH_A10G_Y33A_S53P_M89V_G95A; VK_W32N_H38Q (P1-075621, the second-round optimization parent 26D5-295-B08 formatted with mouse IgG Fc). COMPOUND 5 and α-Compound A antibody titrations were added first to the microplate, and were subjected to an initial incubation at 37° C., 1000 rpm, for one hour to facilitate antibody binding to the compound. After the initial incubation period, the europium α-mouse IgG, streptavidin-D2, and 26D5-mouse IgG (P1-075621) were added sequentially, then the plate was returned to 37° C., 1000 rpm incubation. Microplates were read using a Perkin Elmer EnVision plate reader, and the measured FRET signal was defined as [665 nm]/[620 nm]*10,000. Microplates were read at 30 minutes (T0) and after 24 hour (T24) intervals. […]

[3] = SPR (Biacore) Protein A mAb capture, Compound A injected; conditions: 37° C., binding to Compound A, for rank ordering only
Method: The binding of hybridoma expressed 26D5 parent mAb (VH SEQ ID NO: 83 and VL SEQ ID NO: 98 in IgG1 f format)(P1-072224) and affinity matured mAbs to Compound A was examined by SPR (Biacore™) using a protein A capture method. The running buffer was 1×PBS (phosphate buffered saline, pH 7.4) with 0.05% Tween 20 and 2% DMSO. Binding experiments were carried out at 37° C. Protein A was coated on a CM5 S-series sensor chip (Cytiva, Cat. No. 29149603) at high density (2000+ RUs of protein A). The immobilization of protein A was carried out using the standard amine coupling immobilization procedure recommended by the manufacturer. The affinity matured antibody was then captured at a concentration of 2 ug/mL on the protein A surface at a flow rate of 3 uL/min for 2 minutes. Compound A was then injected over the captured antibody at concentrations spanning 100-3 nM (100, 50, 25, 12.5, 6.25, 3.125 nM) (FIG. 10) and for screening concentrations spanning 100-3 nM (100, 33, 11 nM) for 2 minutes at a flow rate of 100 uL/min and allowed to dissociate for at least 450 seconds. The chip surface was regenerated after each cycle with a 40 second pulse of 10 mM Glycine, pH 1.5. Background binding to the protein A surface alone was used to subtract non-specific binding. All experiments were run on a Biacore T200 surface plasmon resonance instrument using Biacore T200 Control software v. 2. Data analysis was performed using Biacore T200 evaluation software v 3.1. Apparent affinities were determined for rank ordering only since dissociation rates were too slow to be measured by Biacore. The names of the mAbs in Table 10 refer to mAbs having the H and L chain sequences of the corresponding Fabs in Table 3 in an IgG1f format.

## C[C@@H]1CCC[C@H](n2cnc(-c3cc(Cl)ccc3-n3cc(Cl)nn3)cc2=O)c2cc(ccn2)-c2c(cnn2C(F)F)NC1=O [Compound A, (5R,9S)-9-(4-(5-chloro-2-(4-chloro-1H-1,2,3-triazol-1-yl)phenyl)-6-oxopyrimidin-1(6H)-yl)-21-(difluoromethyl)-5-methyl-21H-3-aza-1(4,2)-pyridina-2(5,4)-pyrazolacyclononaphan-4-one, reference compound]
[1]
  rabbit plasma aPTT increase relative to baseline: approximately 2 fold

B1: 26D5-GVR-Q-FT-Fab-LONG mAb: IgG1f mAb called P1-072226, S31 in place of R31, i.e. 26D5-GV-Q (VH SEQ ID NO: 82, VL SEQ ID NO: 99) (antibody, V domains shown)
VH: EVQLVESGGGLIQPGGSLRLSCAASGFTVSSNYMSWVRQAPGKGLEWVSFIYSGGRTYYADSVKGRFTISRDNSKNTLYLQMNSLRAEDTAVYYCARGGFGGGDYWGQGTLVTVSS
VL: DIQMTQSPSSVSASVGDRVTITCRASQGISSWLAWYQQKPGKAPKLLIYAASSLQSGVPSRFSGSGSGTDFTLTISSLQPEDFATYYCQQANSFPLTFGGGTKVEIK
[2]
  T0-T24 IC50 shift (Δ): 63 nM

B2: P1-072963: IgG1f mAb format of first round optimization progeny 26D5-295-B08; VH SEQ ID NO: 60, VL SEQ ID NO: 88 (antibody, V domains shown)
VH: B1 VH with Y33A, S53P, G98A
VL: B1 VL with W32N
[2]
  T0-T24 IC50 shift (Δ): 20.5 nM

B3: 26D5-75747-348-D07-mAb: human IgG1f/kappa mAb; VH SEQ ID NO: 57, VL SEQ ID NO: 90 (antibody, V domains shown)
VH: B1 VH with Y33A, M34F, F50Y, R97A, G98A
VL: B1 VL with W32Q, L33V, A50Y, A91G, S93E
[3]; apparent affinity, listed as 26D5-75747-0348-D07-mAb, read-out: KD
  Kd: < 0.03 nM
[3]; apparent affinity, read-out: KD
  Kd: < 0.02 nM
[3]; apparent
  Ka: 2e+06 M⁻¹ s⁻¹
  Kd: <5e-05 s⁻¹
[2]
  T0-T24 IC50 shift (Δ): 4.3 nM
